B1: CPEB3 Ribozyme (parent)
chain: UAACAGGGGGCCACAGCAGAAGCGUUCACGUCGCAGCCCCUGUCAGAUUCUGGUGAAUCUGCGAAUUCUGCUGUAUAUCUC

Variants of B1 are the subject of the data set. Nature of the data set: self-cleavage, relative activity (ratio to wild type); higher = more cleavage; in vitro, sequencing. The essentials:
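For each CPEB3 ribozyme variant, relative activity is its cleaved/total read fraction divided by the unmutated ribozyme's. Barcoded error-prone PCR libraries were transcribed by T7 RNA polymerase (5 hours, 37°C) and held in DNase I for 15 min before an EDTA stop, with cleavage occurring throughout. Template-switching reverse transcription and Illumina sequencing were used to read the RNAs. A 5-read minimum applied, and results are the mean of three batches.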
Take G46A C68A: the self-cleavage came out at 0.15.

Take A45U G55A: the self-cleavage was 0.14.

For A45U G55U, the self-cleavage was 0.24.

As to A45U C71U, the self-cleavage was determined as 0.13.

Turning to A45U C71A, the self-cleavage was found to be 0.1.

With A45U U58C, the self-cleavage was found to be 0.29.

A45U U58A: the self-cleavage was 0.12.

Consider G46A U69C, for which the self-cleavage came out at 0.07.

Consider A45G U58A, for which the self-cleavage is 0.31.

For A45G U58G, the self-cleavage worked out at 0.18.

Turning to A45G U58C, the self-cleavage amounted to 0.31.

Take G46A U58C: the self-cleavage is 0.38.

A45G C81A: the self-cleavage came out at 1.02.

As for A45G C81U, the self-cleavage was determined as 1.07.

G46A A75G: the self-cleavage came out at 0.25.

Take A45G U74A: the self-cleavage came to 1.13.

Regarding A45G U74G, the self-cleavage was 1.21.

As for A45G U74C, the self-cleavage amounted to 1.1.

As to A45U G52C, the self-cleavage stood at 0.29.

Regarding C44G U49A, the self-cleavage amounted to 0.23.

C44G U49C: the self-cleavage is 0.19.

Consider C44U G55A, for which the self-cleavage is 0.07.

On to A45C U69A, for which the self-cleavage is 0.14.

For A45C U69C, the self-cleavage stood at 0.27.

Turning to C44A U76C, the self-cleavage is 0.37.

In the case of A45G U80G, the self-cleavage was found to be 1.02.

With A45G U80C, the self-cleavage came to 0.91.

Take A45G U80A: the self-cleavage was 0.91.

Turning to A45U G53U, the self-cleavage stood at 0.58.

Regarding A45U G53A, the self-cleavage came out at 0.68.

Turning to A45U G53C, the self-cleavage worked out at 0.33.

For the variant A45U C50G, the self-cleavage amounted to 0.06.

Turning to A45U C50A, the self-cleavage was determined as 0.16.

Take A45U A47G: the self-cleavage was 0.36.

Take A45U A47U: the self-cleavage worked out at 0.24.

In the case of A45U A47C, the self-cleavage is 0.22.

On to C44G A57G, for which the self-cleavage stood at 0.45.

For G46A U67A, the self-cleavage was determined as 0.18.

As for G46A U67C, the self-cleavage amounted to 0.15.

Take A45U C79U: the self-cleavage came to 0.77.

Consider A45U C79A, for which the self-cleavage was 0.8.

A45C C62U: the self-cleavage was found to be 0.36.

On to A45U U72G, for which the self-cleavage is 0.61.

A45U U72A: the self-cleavage was 0.39.

Take A45U U72C: the self-cleavage was found to be 0.5.

Regarding A45U C81A, the self-cleavage stood at 0.87.

On to A45U C81U, for which the self-cleavage is 0.46.

With A45U U49A, the self-cleavage amounted to 0.17.

As to A45U U49C, the self-cleavage was 0.25.

Turning to C44G U60C, the self-cleavage is 0.38.

As to C44G U74A, the self-cleavage worked out at 1.18.

For the variant C44G U74C, the self-cleavage stood at 1.02.

In the case of A45G U76A, the self-cleavage is 0.96.

For A45G U76G, the self-cleavage came to 0.97.

As for A45G U76C, the self-cleavage is 0.79.

As for C44U A45C, the self-cleavage is 0.46.

As to C44U A45G, the self-cleavage was determined as 0.41.

Regarding G46A C50U, the self-cleavage came to 0.17.

Consider G46A C50G, for which the self-cleavage is 0.21.

In the case of A45U C68G, the self-cleavage amounted to 0.25.

As for A45U C68U, the self-cleavage amounted to 0.53.

In the case of C44U, the self-cleavage was determined as 0.31.

As to C44G, the self-cleavage is 0.52.

Regarding G46C, the self-cleavage worked out at 0.32.

Turning to G46A, the self-cleavage was found to be 0.33.

Consider C44U U60C, for which the self-cleavage is 0.52.

For the variant C44U U60A, the self-cleavage was found to be 0.14.

As for C44U U58C, the self-cleavage worked out at 0.28.

Take A45U A75G: the self-cleavage came out at 0.35.

Consider A45U A75U, for which the self-cleavage is 0.55.

For C44G U72C, the self-cleavage turned out to be 0.54.

Regarding C44G U72G, the self-cleavage was determined as 0.2.

Turning to G46A U78C, the self-cleavage was 0.38.

Take G46A U76C: the self-cleavage came to 0.19.

For the variant G46A U76A, the self-cleavage was 0.5.

Regarding A45C G63A, the self-cleavage worked out at 0.49.

A45C G63C: the self-cleavage was 0.52.

Take C44G U76C: the self-cleavage was determined as 0.58.

As for G46C A64U, the self-cleavage worked out at 0.11.

For A45C U78C, the self-cleavage amounted to 0.42.

As to G46A U74C, the self-cleavage amounted to 0.48.

Take A45U U69C: the self-cleavage came to 0.31.

For the variant A45U U69G, the self-cleavage stood at 0.51.

For the variant A45U U69A, the self-cleavage stood at 0.31.

As for C44G U80C, the self-cleavage was 0.78.

With C44G U80A, the self-cleavage turned out to be 0.52.

As to A45U U54A, the self-cleavage worked out at 0.51.

Turning to A45U U54C, the self-cleavage is 0.53.

As to A45U U54G, the self-cleavage is 0.21.

Consider A45G U60C, for which the self-cleavage worked out at 1.13.

For A45G U60A, the self-cleavage worked out at 0.53.

As to A45G U60G, the self-cleavage is 0.25.

With C44U U78A, the self-cleavage was found to be 0.3.

In the case of C44U U78C, the self-cleavage is 0.35.

With C44U U78G, the self-cleavage is 0.12.

As to A45C U51A, the self-cleavage turned out to be 0.41.

A45C U51C: the self-cleavage is 0.32.

Turning to A45C G55C, the self-cleavage stood at 0.11.

For A45G U48C, the self-cleavage came to 0.29.

Take A45G U48G: the self-cleavage was determined as 0.19.

On to A45G U48A, for which the self-cleavage was 0.39.

With A45C A75G, the self-cleavage was 0.14.

For the variant A45C A75U, the self-cleavage came out at 0.5.

In the case of G46A A77G, the self-cleavage amounted to 0.27.

With G46A A77U, the self-cleavage turned out to be 0.48.

For A45C A57G, the self-cleavage stood at 0.26.

For C44A U51A, the self-cleavage was 0.11.

With A45U G73A, the self-cleavage worked out at 1.23.

In the case of A45U G73U, the self-cleavage worked out at 1.2.

On to C44U U66A, for which the self-cleavage was found to be 0.51.

For G46A G53A, the self-cleavage worked out at 0.45.

Take C44G A45G: the self-cleavage is 0.34.

For C44G A45U, the self-cleavage was 0.13.

For the variant C44U U67C, the self-cleavage came to 0.11.

Consider C44U U67A, for which the self-cleavage stood at 0.14.

C44U C81A: the self-cleavage was found to be 0.11.

With A45U A65G, the self-cleavage stood at 0.25.

As to A45U A65U, the self-cleavage worked out at 0.18.

In the case of C44A U67C, the self-cleavage came to 0.16.

Take G46A U72C: the self-cleavage was 0.32.

With C44U U80C, the self-cleavage stood at 0.29.

In the case of C44U U80A, the self-cleavage is 0.46.

With A45U U60C, the self-cleavage was 0.46.

For the variant A45U U60G, the self-cleavage is 0.68.

Turning to A45U U60A, the self-cleavage amounted to 1.09.

For the variant A45U U66A, the self-cleavage was determined as 0.31.

Turning to A45U U66C, the self-cleavage amounted to 0.27.

Turning to A45U U66G, the self-cleavage turned out to be 0.13.

Consider G46A U80C, for which the self-cleavage worked out at 0.37.

For the variant A45C G73A, the self-cleavage worked out at 1.19.

With A45G U78G, the self-cleavage amounted to 0.81.

On to A45G U78A, for which the self-cleavage turned out to be 0.91.

On to A45G U78C, for which the self-cleavage came to 0.76.

As for A45C U60C, the self-cleavage is 0.41.

Regarding A45C U60A, the self-cleavage was 0.33.

In the case of G46A A65G, the self-cleavage came to 0.14.

For G46A A65U, the self-cleavage came out at 0.43.

For the variant A45G C79G, the self-cleavage was determined as 1.12.

With A45G C79A, the self-cleavage amounted to 1.13.

Consider C44U U72C, for which the self-cleavage came to 0.19.

Regarding C44U U72A, the self-cleavage came to 0.14.

C44G U78C: the self-cleavage was determined as 0.44.

For the variant A45C A64U, the self-cleavage came to 0.

For A45C A64G, the self-cleavage came out at 0.32.

As to C44U A75U, the self-cleavage is 0.31.

Regarding A45G G46A, the self-cleavage was 0.29.

Turning to A45G G46U, the self-cleavage was determined as 0.21.

As to C44U U76A, the self-cleavage was determined as 0.14.

For C44U U76C, the self-cleavage was 0.25.

Regarding A45C U74C, the self-cleavage is 0.7.

On to A45C U74G, for which the self-cleavage stood at 0.68.

Turning to C44G U67C, the self-cleavage came out at 0.18.

Take C44G C71U: the self-cleavage is 0.15.

As for C44A U66G, the self-cleavage stood at 0.23.

As to A45U U78C, the self-cleavage is 0.44.

As for A45U U78A, the self-cleavage was found to be 0.62.

Take A45U U78G: the self-cleavage was determined as 0.65.

With C44A U72C, the self-cleavage is 0.71.

On to C44G A56G, for which the self-cleavage came out at 0.44.

As to A45G A75C, the self-cleavage was 1.01.

As for A45G A75U, the self-cleavage stood at 0.91.

For the variant A45G A75G, the self-cleavage amounted to 0.77.

A45G C68U: the self-cleavage was 0.88.

With A45G C68A, the self-cleavage amounted to 0.18.

Turning to C44G G63A, the self-cleavage was 0.65.

For the variant A45G C50G, the self-cleavage came to 0.28.

As to A45G C50U, the self-cleavage turned out to be 0.74.
